For experiment [1], the target named is endogenous retromer (Vps26, Vps29, Vps35) (human (endogenous in HeLa and HaCaT)) (UniProt Q96QK1). The experiment can be described thus: proximity ligation.
The target in experiment [2] is human retromer trimer assembled from Vps26, Vps29 and GST-tagged Vps35, Q96QK1;Q9UBQ0;O75436. The experiment can be described thus: pull-down on immobilized purified retromer trimer, anti-His immunoblot quantified. The conditions noted are these: read off a plot. (In general: In western blotting, separated proteins are transferred to a membrane and probed.)

In turn, “HPV16 L2 double mutant (FYL/AAA and YYML/AAAA) with a carboxy-terminal 3xFLAG tag, in pseudovirus (from UniProt P03107 1-473) (natural protein)” returned a percent decrease of the PLA signal against wild-type PsV at eight hours in experiment [1] of 70%.

In the case of “Maltose binding protein (MBP)-L2-6His fusion protein, wild-type HPV16 L2 amino acids 434-457 F446A; Y447A; L448A”, the ratio to parent in experiment [2] (5 µM MBP-L2, parent: est. 0.18) amounted to 0.2; in experiment [2] (10 µM MBP-L2, parent: est. 1.0), 0.28.

As for “Maltose binding protein (MBP)-L2-6His fusion protein, wild-type HPV16 L2 amino acids 434-457 F446A; Y447A; L448A; Y452A; Y453A; M454A; L455A”, the ratio to parent in experiment [2] (5 µM MBP-L2, parent: est. 0.18) came out at 0.17; in experiment [2] (10 µM MBP-L2, parent: est. 1.0), 0.21.

For “Maltose binding protein (MBP)-L2-6His fusion protein, wild-type HPV16 L2 amino acids 434-457 Y452A; Y453A; M454A; L455A”, the ratio to parent in experiment [2] (5 µM MBP-L2, parent: est. 0.18) was 0.29; in experiment [2] (10 µM MBP-L2, parent: est. 1.0), 0.38.

The values are drawn from article PMC4334968.
